Results from PMC12522135, “Engineering a Coiled-Coil Protein for DARPin Presentation as a Potent SARS-CoV‑2 Therapeutic” (Biomacromolecules, 2025).

B1: HEX-D3 (designed binder)
chain: DLGKKLLQAARAGQLDEVRELLKAGADVNAKDQEGITPLHVAAHQGHLEIVEVLLKAGADVNAKDVWGRTPLHLAAWRGHLEIVEVLLKAGADVNAKDHAGATPLHAAALSGHLEIVEVLLKAGADVNAQDKSGKTPADLAARAGHQDIAEVLQKAAGGGSGGGSGGGSGGGSGELKAIAQELKAIAKELKAIAWELKAIAQGAGGGGSGGGSGGGSGGGSDLGKKLLQAARAGQLDEVRELLKAGADVNAKDQEGITPLHVAAHQGHLEIVEVLLKAGADVNAKDVWGRTPLHLAAWRGHLEIVEVLLKAGADVNAKDHAGATPLHAAALSGHLEIVEVLLKAGADVNAQDKSGKTPADLAARAGHQDIAEVLQKAA
B2: Linear D1 (designed binder)
chain: DLGKKLLQAARAGQLDEVRELLKAGADVNAKDREGITPLHLAAQHGHLEIVEVLLKAGADVNAKDVWGRTPLHLAAWQGHLEIVEVLLKAGADVNAKDLAGATPLHVAALYGHLEIVEVLLKAGADVNAQDKSGKTPADLAARAGHQDIAEVLQKAAGGGSGGGSGGGSGGGSDLGKKLLQAARAGQLDEVRELLKAGADVNAKDREGITPLHLAAQHGHLEIVEVLLKAGADVNAKDVWGRTPLHLAAWQGHLEIVEVLLKAGADVNAKDLAGATPLHVAALYGHLEIVEVLLKAGADVNAQDKSGKTPADLAARAGHQDIAEVLQKAAGGGSGGGSGGGSGGGSDLGKKLLQAARAGQLDEVRELLKAGADVNAKDREGITPLHLAAQHGHLEIVEVLLKAGADVNAKDVWGRTPLHLAAWQGHLEIVEVLLKAGADVNAKDLAGATPLHVAALYGHLEIVEVLLKAGADVNAQDKSGKTPADLAARAGHQDIAEVLQKAA
B3: HEX-D1 (designed binder)
chain: DLGKKLLQAARAGQLDEVRELLKAGADVNAKDREGITPLHLAAQHGHLEIVEVLLKAGADVNAKDVWGRTPLHLAAWQGHLEIVEVLLKAGADVNAKDLAGATPLHVAALYGHLEIVEVLLKAGADVNAQDKSGKTPADLAARAGHQDIAEVLQKAAGGGSGGGSGGGSGGGSGELKAIAQELKAIAKELKAIAWELKAIAQGAGGGGSGGGSGGGSGGGSDLGKKLLQAARAGQLDEVRELLKAGADVNAKDREGITPLHLAAQHGHLEIVEVLLKAGADVNAKDVWGRTPLHLAAWQGHLEIVEVLLKAGADVNAKDLAGATPLHVAALYGHLEIVEVLLKAGADVNAQDKSGKTPADLAARAGHQDIAEVLQKAA
B4: HEX-D2 (designed binder)
chain: DLGKKLLQAARAGQLDEVRELLKAGADVNAKDREGKTPLHVAAQEGHLEIVEVLLKAGADVNAKDVWGRTPLHLAAWIGHLEIVEVLLKAGADVNAKDVSGATPLHAAALHGHLEIVEVLLNAGADVNAQDKSGKTPADLAARAGHQDIAEVLQKAAGGGSGGGSGGGSGGGSGELKAIAQELKAIAKELKAIAWELKAIAQGAGGGGSGGGSGGGSGGGSDLGKKLLQAARAGQLDEVRELLKAGADVNAKDREGKTPLHVAAQEGHLEIVEVLLKAGADVNAKDVWGRTPLHLAAWIGHLEIVEVLLKAGADVNAKDVSGATPLHAAALHGHLEIVEVLLNAGADVNAQDKSGKTPADLAARAGHQDIAEVLQKAA
B5: Linear D2 (designed binder)
chain: DLGKKLLQAARAGQLDEVRELLKAGADVNAKDREGKTPLHVAAQEGHLEIVEVLLKAGADVNAKDVWGRTPLHLAAWIGHLEIVEVLLKAGADVNAKDVSGATPLHAAALHGHLEIVEVLLNAGADVNAQDKSGKTPADLAARAGHQDIAEVLQKAAGGGSGGGSGGGSGGGSDLGKKLLQAARAGQLDEVRELLKAGADVNAKDREGKTPLHVAAQEGHLEIVEVLLKAGADVNAKDVWGRTPLHLAAWIGHLEIVEVLLKAGADVNAKDVSGATPLHAAALHGHLEIVEVLLNAGADVNAQDKSGKTPADLAARAGHQDIAEVLQKAAGGGSGGGSGGGSGGGSDLGKKLLQAARAGQLDEVRELLKAGADVNAKDREGKTPLHVAAQEGHLEIVEVLLKAGADVNAKDVWGRTPLHLAAWIGHLEIVEVLLKAGADVNAKDVSGATPLHAAALHGHLEIVEVLLNAGADVNAQDKSGKTPADLAARAGHQDIAEVLQKAA
B6: Linear D3 (designed binder)
chain: DLGKKLLQAARAGQLDEVRELLKAGADVNAKDQEGITPLHVAAHQGHLEIVEVLLKAGADVNAKDVWGRTPLHLAAWRGHLEIVEVLLKAGADVNAKDHAGATPLHAAALSGHLEIVEVLLKAGADVNAQDKSGKTPADLAARAGHQDIAEVLQKAAGGGSGGGSGGGSGGGSDLGKKLLQAARAGQLDEVRELLKAGADVNAKDQEGITPLHVAAHQGHLEIVEVLLKAGADVNAKDVWGRTPLHLAAWRGHLEIVEVLLKAGADVNAKDHAGATPLHAAALSGHLEIVEVLLKAGADVNAQDKSGKTPADLAARAGHQDIAEVLQKAAGGGSGGGSGGGSGGGSDLGKKLLQAARAGQLDEVRELLKAGADVNAKDQEGITPLHVAAHQGHLEIVEVLLKAGADVNAKDVWGRTPLHLAAWRGHLEIVEVLLKAGADVNAKDHAGATPLHAAALSGHLEIVEVLLKAGADVNAQDKSGKTPADLAARAGHQDIAEVLQKAA

target: SARS-CoV-2 RBD protein (SARS-CoV-2 (Wuhan-Hu-1), UniProt P0DTC2 319-541); test: BLI; details: both partners purified

| Binder | Kd [pM] |
| --- | --- |
| B1 | < 1 |
| B2 | < 1 |
| B3 | < 1 |
| B4 | < 1 |
| B5 | < 1 |
| B6 | < 1 |
